Assay results published in US20140120555A1 (PIERRE FABRE MEDICAMENT, published 2014).

T1: Recombinant mouse FcγRI [CD64], Gln25-Pro297 with C-terminal 6-His tag (mouse, UniProt P26151 25-297)
T1 construct: range 25-297; Soluble form bought from R&D Systems; also called m-FcγRI
T1 sequence: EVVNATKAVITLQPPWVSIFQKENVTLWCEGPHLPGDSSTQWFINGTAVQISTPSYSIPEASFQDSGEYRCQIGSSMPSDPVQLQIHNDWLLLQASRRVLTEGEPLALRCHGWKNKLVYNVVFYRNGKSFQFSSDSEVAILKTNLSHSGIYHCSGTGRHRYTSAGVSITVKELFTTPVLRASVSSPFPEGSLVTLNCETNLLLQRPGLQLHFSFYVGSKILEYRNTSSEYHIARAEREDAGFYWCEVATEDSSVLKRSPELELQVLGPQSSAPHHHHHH

T2: Recombinant mouse FcγRIII [CD16], Ala31-Thr215 with C-terminal 10-His tag (mouse, UniProt P08508 31-215)
T2 construct: Soluble form bought from R&D Systems; also called m-FcγRIII
T2 sequence: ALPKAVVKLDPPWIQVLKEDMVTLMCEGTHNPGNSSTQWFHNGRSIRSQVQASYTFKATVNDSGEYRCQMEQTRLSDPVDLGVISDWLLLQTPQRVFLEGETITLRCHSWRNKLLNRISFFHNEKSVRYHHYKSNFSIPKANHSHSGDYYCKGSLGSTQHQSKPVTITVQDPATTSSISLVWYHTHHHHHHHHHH


Tests used:
[1] = biological target: T3, Recombinant human FcγRIIIA variant V [CD16a], Gln17-Gln208 with C-terminal 6-His tag (human, UniProt P08637 17-208); assay: SPR (Biacore X): h-FcγRIIIA injected over c515H7 Mab immobilized on a CM4 sensorchip; heterogeneous ligand model, major component (81%)
T3 construct: range 17-208; 'variant V' is given without a position, so no substitution is written; also called h-FcγRIIIA
Experimental: (§1) 2017 RU of c515H7 Mab were immobilized using the amine coupling kit chemistry on the second flowcell (FC2) of a CM4 sensorchip. The first flowcell (FC1) activated by NHS and EDC mixture and des-activated by ethanolamine served as the reference surface to check and subtract the non specific interaction between the analyte (Fc gamma receptors) and the sensorchip matrix.
(§2) The kinetic experiments were carried out at 25° Celsius at a flow rate of 30 μl/min. The HBS-EP buffer was used either as the running buffer or for the preparation of analyte solutions. The analyte solutions were injected during 90 seconds (association phase) with a 90 seconds delay (dissociation phase). An injection of running buffer as analyte was used as a double reference. All the sensorgrams were corrected by this double reference sensorgram.
(§3) After each injection of the analyte, the sensorchip was regenerated by injection of 20 mM NaOH, 75 mM NaCl solution.

[2] = biological target: T1, Recombinant mouse FcγRI [CD64], …; assay: SPR (Biacore X), Mab on CM4 chip, m-FcγRI as analyte, heterogeneous ligand model, major component; major component (81%), lower value
Experimental: as §1, §2
(§4) According to this model, the c515H7 Mab Fc domain may be regarded as a mixture of two components.

[3] = biological target: T1, Recombinant mouse FcγRI [CD64], …; assay: SPR (Biacore X), Mab on CM4 chip, m-FcγRI as analyte, heterogeneous ligand model, major component; major component (81%), higher value
Experimental: as §1, §2, §4

[4] = biological target: T1, Recombinant mouse FcγRI [CD64], …; assay: SPR (Biacore X): m-FcγRI injected over c515H7 Mab immobilized on a CM4 sensorchip; Langmuir model
Experimental: as §1, §2, §3

[5] = biological target: T4, Recombinant human FcγRI [CD64], Gln16-Pro288 with C-terminal 6-His tag (human, UniProt P12314 16-288); assay: SPR (Biacore X): h-FcγRI injected over hz515H7VH1D76NVL2 Mab immobilized on a CM4 sensorchip; heterogeneous ligand model, major component (99%)
T4 construct: range 16-288; Soluble form bought from R&D Systems; also called h-FcγRI
Experimental: The experiments were carried out using a Biacore X device. The soluble forms of the four Fc […]gamma receptors used in this study were purchased from R&D Systems: […]

[6] = biological target: T2, Recombinant mouse FcγRIII [CD16], …; assay: SPR (Biacore X), Mab on CM4 chip, m-FcγRIII as analyte, Langmuïr model; higher of the two Langmuïr-fit values
Experimental: as §1, with “1964” for “2017”, “hz515H7VH1D76NVL2” for “c515H7”
as §2
(§5) Using the Langmuïr model the constant of dissociation was around 17 and 18 nM.

[7] = biological target: T1, Recombinant mouse FcγRI [CD64], …; assay: SPR (Biacore X), Mab on CM4 chip, m-FcγRI as analyte, heterogeneous ligand model, major component
Experimental: as §1, with “1964” for “2017”, “hz515H7VH1D76NVL2” for “c515H7”
as §2
According to this model, the hz515H7VH1D76NVL2 Mab Fc domain may be regarded as a mixture of two components.

[8] = biological target: T1, Recombinant mouse FcγRI [CD64], …; assay: SPR (Biacore X): m-FcγRI injected over hz515H7VH1D76NVL2 Mab immobilized on a CM4 sensorchip; Langmuir model
Experimental: as §1, with “1964” for “2017”, “hz515H7VH1D76NVL2” for “c515H7”
as §2
After each injection of the analyte, the sensorchip was regenerated by injection of either 20 mM NaOH solution after h-FcγRI and m-FcγRIII or 10 mM NaOH after h-FcγRIIIA and m-FcγRI.

[9] = biological target: T2, Recombinant mouse FcγRIII [CD16], …; assay: SPR (Biacore X): m-FcγRIII injected over hz515H7VH1D76NVL2 Mab immobilized on a CM4 sensorchip; Langmuir model
Experimental: as §1, with “1964” for “2017”, “hz515H7VH1D76NVL2” for “c515H7”
as §2, §5

T3 sequence (P08637 other isoform, or with tags, fused parts or gaps mutant limits assumed, form in doubt): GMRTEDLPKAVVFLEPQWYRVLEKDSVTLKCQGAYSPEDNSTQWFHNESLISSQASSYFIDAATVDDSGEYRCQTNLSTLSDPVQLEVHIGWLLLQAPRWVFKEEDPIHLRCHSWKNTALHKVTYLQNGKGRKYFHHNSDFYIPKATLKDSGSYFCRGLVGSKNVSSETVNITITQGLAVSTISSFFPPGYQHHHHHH
T4 sequence (P12314 other isoform, or with tags, fused parts or gaps limits assumed): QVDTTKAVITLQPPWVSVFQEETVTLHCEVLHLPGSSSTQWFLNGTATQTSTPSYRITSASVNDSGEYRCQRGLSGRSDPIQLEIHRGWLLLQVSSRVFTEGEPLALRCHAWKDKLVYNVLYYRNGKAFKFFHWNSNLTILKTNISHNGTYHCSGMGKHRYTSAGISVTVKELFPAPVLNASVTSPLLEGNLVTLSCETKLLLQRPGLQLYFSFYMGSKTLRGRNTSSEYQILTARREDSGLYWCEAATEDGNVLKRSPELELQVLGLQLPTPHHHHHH

| Kd [1] [nM] | koff [1] [s⁻¹] | kon [1] [M⁻¹ s⁻¹] | Kd [2] [nM] | Kd [3] [nM] | Kd [4] [nM] | koff [4] [s⁻¹] | kon [4] [M⁻¹ s⁻¹] | Kd [5] [nM] | koff [5] [s⁻¹] | kon [5] [M⁻¹ s⁻¹] | Kd [6] [nM] | Kd [7] [nM] | Kd [8] [nM] | koff [8] [s⁻¹] | kon [8] [M⁻¹ s⁻¹] | Kd [9] [nM] | koff [9] [s⁻¹] | kon [9] [M⁻¹ s⁻¹] | Binder |
| --- | --- | --- | --- | --- | --- | --- | --- | --- | --- | --- | --- | --- | --- | --- | --- | --- | --- | --- | --- |
| 395 | 0.185 | 468000 | ~380 | ~450 | 106 | 0.0661 | 622000 |  |  |  |  |  |  |  |  |  |  |  | chimeric antibody c515H7 (antibody, human IgG1, kappa, Human IgG1/kappa constant domains; also called c515H7 Mab; chimeric 515H7) heavy: not shown light: DIVMSQSPSSLAVSAGEKVTMSCKSSQSLFNSRTRKNYLAWYQQKPGQSPKLLIYWASARDSGVPARFTGSGSETYFTLTISRVQAEDLAVYYCMQSFNLRTFGGGTKLEIKRTVAAPSVFIFPPSDEQLKSGTASVVCLLNNFYPREAKVQWKVDNALQSGNSQESVTEQDSKDSTYSLSSTLTLSKADYEKHKVYACEVTHQGLSSPVTKSFNRGEC |
|  |  |  |  |  |  |  |  | 0.69 | 0.0004 | 579000 | ~18 | 75 to 80 | 77 | 0.0648 | 842000 | 17.4 | 0.00364 | 209000 | humanized antibody Hz515H7 VH1 D76N VL2 (antibody, human IgG1, kappa, IgG1/kappa; also called hz515H7VL2; hz515H7-1) heavy: not shown light: DIVMTQSPSSLAVSLGERATMSCKSSQSLFNSRTRKNYLAWYQQKPGQSPKLLIYWASARDSGVPARFTGSGSETYFTLTISRVQAEDLAVYYCMQSFNLRTFGQGTKVEIKRTVAAPSVFIFPPSDEQLKSGTASVVCLLNNFYPREAKVQWKVDNALQSGNSQESVTEQDSKDSTYSLSSTLTLSKADYEKHKVYACEVTHQGLSSPVTKSFNRGEC |
